Source: patent publication US20240352127A1

Experiments:
[1] = molecular target: human PD-L1 on cells (human) (UniProt Q9NZQ7); assay: FACS staining of HCT116 cells with control antibody (expression profile), triplicates
[2] = molecular target: human PD-L1 on cells (human) (UniProt Q9NZQ7); assay: FACS staining of MDA-MB-231 cells with control antibody (expression profile), triplicates

Sequence of human PD-L1 on cells (human) (Q9NZQ7 19-290 limits assumed): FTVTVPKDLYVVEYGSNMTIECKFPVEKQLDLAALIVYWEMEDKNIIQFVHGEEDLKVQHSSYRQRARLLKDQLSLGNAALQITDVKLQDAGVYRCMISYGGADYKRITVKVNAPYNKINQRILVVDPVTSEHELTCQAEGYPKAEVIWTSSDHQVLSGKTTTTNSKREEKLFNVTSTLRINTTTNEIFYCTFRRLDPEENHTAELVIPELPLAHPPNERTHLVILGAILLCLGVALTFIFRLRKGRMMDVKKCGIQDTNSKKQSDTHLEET

Substance: anti-PD-L1 RG7446 MPDL3280A (antibody)
- MFI [1]: 10900 MFI
- MFI [2]: 74600 MFI
